According to patent publication US20240229081:

System: Nla type I-C Cascade-Cas3 in E. coli (Neisseria lactamica)
Assay: cell_activity
Settings: PAM TTC; E. coli plasmid interference

In the case of “Nla native CRISPR spacer 1 crRNA ; spacer 1 target with TTC PAM, plasmid”, the activity is reported as 1000 fold.
